Test results reported in patent US20240400686A1.

Biological target: Human CD3εδ (human) (UniProt P07766)
Experiment: SPR, sensorgrams at 10-300 nM; set-up not given

- Kd: 49 nM
- koff: 0.015 s⁻¹
- kon: 300000 M⁻¹ s⁻¹
B1: humanized 26H8 Fab (Fab, V domains shown)
VH: QVQLQESGPGLVKPSETLSLTCTASGYTFTNYYIHWVRQSPGKGLEWIGWIYCGDGSTKFNEQFKDRTTLSADHSKTQASLKLSSVTAADTAIYFCARDWAGSYFFDFWGQGTMVTVSS
VL: DIQMTQSPSSLSASVGDRVTITCKSSQSLLNSRTRKNYLAWYQQKPGKAPKLLIYWASTRESGVPSRFSGSGSGTDFTFTISSLQPEDIATYYCKQSYILRTFGGGTKVEIKR
